# Residue numbers refer to the chain shown, from its start. Numbers in names are those of the source.
# B1: full-length mouse GITR ligand (mGITRL) (ligand, UniProt Q7TS55 1-173, looked up)
# chain: MEEMPLRESSPQRAERCKKSWLLCIVALLLMLLCSLGTLIYTSLKPTAIESCMVKFELSSSKWHMTSPKPHCVNTTSDGKLKILQSGTYLIYGQVIPVDKKYIKDNAPFVVQIYKKNDVLQTLMNDFQILPIGGVYELHAGDNIYLKFNSKDHIQKTNTYWGIILMPDLPFIS
# notes: mouse GITRL, full-length gene with transmembrane region, in pEZT-BM; the oligomeric state of the full-length protein was not measured here; source: HEK293S GnTI- suspension cells (BacMam), solubilized in DDM, purified (StrepTrap HP, Superose 6)
# B2: full-length mouse GITR fused to EGFP at its C terminus (mGITR_(egfp)), purified (receptor, UniProt O35714 20-228, looked up)
# chain: QPSVVEEPGCGPGKVQNGSGNNTRCCSLYAPGKEDCPKERCICVTPEYHCGDPQCKICKHYPCQPGQRVESQGDIVFGFRCVACAMGTFSAGRDGHCRLWTNCSQFGFLTMFPGNKTHNAVCIPEPLPTEQYGHLTVIFLVMAACIFFLTTVQLGLHIWQLRRQHMCPRETQPFAEVQLSAEDACSFQFPEEERGEQTEEKCHLGGRWP
# modifications: intersubunit disulfide bond at Cys55
# notes: signal peptide in the construct; mouse GITR, full-length gene in pEZT-BM, followed by a thrombin cleavage site, EGFP and 8x His; Cys14 lies in the predicted signal peptide and is not in the mature protein; last residue P228; Disulfide-linked dimer by cryo-EM; EGFP fluorescence was monitored in FSEC; also called glucocorticoid-induced TNF receptor; source: HEK293S GnTI- suspension cells (BacMam), …
# B3: full-length mGITR_(egfp) with C-terminal 1D4 tag, in HEK293 lysate (receptor, mouse, UniProt O35714 20-228, looked up)
# chain: B2 chain
# modifications: intersubunit disulfide bond at Cys55
# notes: signal peptide in the construct; mouse GITR, full length (to P228), followed by EGFP and a 1D4 tag; May be the same construct as m1; the methods name an 8x His tag for the purified protein, the results a 1D4 tag for all constructs analysed in lysate; source: HEK293 cells, solubilized with DDM, in lysate; not shown: EGFP, C-terminal, kept; 1D4, C-terminal, kept
# B4: mGITR_(ΔCTD-egfp) (domain or fragment, mouse, UniProt O35714 20-185, looked up)
# chain: QPSVVEEPGCGPGKVQNGSGNNTRCCSLYAPGKEDCPKERCICVTPEYHCGDPQCKICKHYPCQPGQRVESQGDIVFGFRCVACAMGTFSAGRDGHCRLWTNCSQFGFLTMFPGNKTHNAVCIPEPLPTEQYGHLTVIFLVMAACIFFLTTVQLGLHIWQLRRQHM
# notes: signal peptide in the construct; mouse GITR without the unstructured C-terminal residues C186-P228; also called CTD deletion construct; source: HEK293 cells, solubilized with DDM, in lysate; not shown: EGFP, C-terminal, kept; 1D4, C-terminal, kept
# B5: mGITR_(ΔCTD-egfp)-C164A (domain or fragment, mouse, UniProt O35714 20-185, looked up)
# chain: B4 chain with C145A
# notes: signal peptide in the construct; mouse GITR without the C-terminal residues C186-P228, with C164A; also called C164A mutant; source: HEK293 cells, solubilized with DDM, in lysate; not shown: EGFP, C-terminal, kept; 1D4, C-terminal, kept
# Key:
# [1] = biological target: B2; assay: SEC; FSEC of purified proteins mixed with mGITR_(egfp), EGFP fluorescence (tryptophan fluorescence as control), Superose 6 Increase 10/300 GL, 20 mM tris pH 8.0, 300 mM NaCl, 0.5 mM DDM; molar ratio 1:15:4:2 for mGITR_(egfp):mGITRL:Fab:IgG; settings: both partners purified
# [2] = biological target: the molecule itself; assay: cryo-EM structure; mGITR_(egfp)/DTA-1 Fab complex in DDM, single-particle cryo-EM, global resolution 4.4 Å
# [3] = biological target: the molecule itself; assay: non-reducing SDS-PAGE with anti-1D4 Western blot; lysate, nonreduced (-DTT); denaturing SDS-PAGE, shows only covalent dimers
Binder,stoichiometry N [3],other results
B1,,binding result [1]: binds
B2,,stoichiometry N [2]: 2
B3,2,
B4,2,
B5,2,

# — article PMC8880771, “Therapeutic antibody activation of the glucocorticoid-induced TNF receptor by a clustering mechanism” (Science Advances, 2022)
